Experimental data from patent publication US20240425612A1 (published 2024).
Residue numbers refer to the chain shown, from its start.

B1: Trastuzumab-MFc2 (antibody)
Fc: DKTHTCPPCPAPELPGGPSVFLFPPKPKDTLMISRTPEITCVVVDVSHEDPEVKFNWYVDGVEVHNAKTKPREEQYNSTYRVVSVLTVLHRDWLNGKEYKCKVSNKALPAPEEKTISKAKGQPREPQVYTLPPSRDELTKNQVSLTCLVKGFYPSDIVVEWESNGQPENNYKTTPPVLDSDGSFFLYSKLTVDKSRWQQGNVFSCSVLHEALHNHYTQKSLSLSPGK
B2: Trastuzumab-MFc3 (antibody)
Fc: B1 Fc with P15L, S19D, I39V, H48L, A110V, V158A
B3: Trastuzumab-MFc6 (antibody)
Fc: B1 Fc with S19D, I39V, D50Y, S78G, D136G, V158A
B4: Trastuzumab-MFc5 (antibody)
Fc: B1 Fc with P15L, S19D, K28M, I39V, H48L, L89E, R91M, A110V, V158A

What was measured:
[1] = target: hFcγRIIIa-158V-streptavidin-His (human, UniProt P08637 17-208); experiment: BLI
[2] = target: hFcγRIIIa-158F-streptavidin-His (human, UniProt P08637 17-208); experiment: BLI
Chain of hFcγRIIIa-158F-streptavidin-His (P08637 17-208): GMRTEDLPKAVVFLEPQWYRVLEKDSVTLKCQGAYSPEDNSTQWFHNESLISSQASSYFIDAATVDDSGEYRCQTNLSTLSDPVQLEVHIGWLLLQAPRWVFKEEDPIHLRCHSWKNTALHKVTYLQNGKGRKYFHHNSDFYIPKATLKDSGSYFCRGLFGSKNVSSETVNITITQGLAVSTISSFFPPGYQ

Chain of hFcγRIIIa-158V-streptavidin-His (P08637 17-208 F176V): as the sequence (P08637 17-208) above, with F160V counted along it

Binder	Kd [1] [µM]	Kd [2] [µM]
B1	0.0639	0.0568
B2	0.0324	0.0385
B3	0.0289	0.0299
B4	0.085	0.0756
